Our source for the stoichiometry N values is article PMC10515946.

Assay [1] has as its target 1059 SOSIP (TPA-1059 SOSIP, soluble Env trimer of the transmitted/founder HIV-1 strain 1059), purifi (HIV-1 strain 1059). Nature of the assay: cryo-EM structure.
Assay [2] concerns the target BG505 SOSIP (soluble Env trimer of HIV-1 BG505) (HIV-1 strain BG505). Kind of assay: cryo-EM structure.

As to “1059 SOSIP (TPA-1059 SOSIP, soluble Env trimer of the transmitted/founder HIV-1 strain 1059), purifi (complex)”, the stoichiometry N – broadly, the number of molecules, sites or subunits per partner or assembly – in assay [1] worked out at 3. Consider “BG505 SOSIP (soluble Env trimer of HIV-1 BG505) (complex)”, for which, in assay [2], the stoichiometry N turned out to be 3.
